Reference: article PMC3461514 (The Journal of Cell Biology, 2012)
Blank lines part the entries; values can stand above or below the binder they belong to.

How the values were obtained:
[1] = target: GST-KRIT1 FERM (human, UniProt O00522 420-734); experiment: pull-down
[2] = target: KRIT1 FERM domain, KRIT1(417-736) (human, UniProt O00522 417-736); experiment: ITC
[3] = target: KRIT1(L717,721A) FERM protein (human, UniProt O00522 420-734, L717A | L721A); experiment: ITC
Chain of KRIT1(L717,721A) FERM protein (O00522 420-734 L717A/L721A): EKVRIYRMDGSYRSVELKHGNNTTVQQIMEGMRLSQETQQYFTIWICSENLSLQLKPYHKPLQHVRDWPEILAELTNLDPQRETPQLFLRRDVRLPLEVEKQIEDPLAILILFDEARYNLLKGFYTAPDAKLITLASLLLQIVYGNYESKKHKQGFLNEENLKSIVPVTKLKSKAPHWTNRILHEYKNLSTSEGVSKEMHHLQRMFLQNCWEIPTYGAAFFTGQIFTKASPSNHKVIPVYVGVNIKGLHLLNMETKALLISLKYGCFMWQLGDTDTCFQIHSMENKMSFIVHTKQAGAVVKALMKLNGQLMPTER

Chain of GST-KRIT1 FERM (O00522 420-734): as the sequence (O00522 420-734 L717A/L721A) above, with A298L, A302L counted along it
Chain of KRIT1 FERM domain, KRIT1(417-736) (O00522 417-736): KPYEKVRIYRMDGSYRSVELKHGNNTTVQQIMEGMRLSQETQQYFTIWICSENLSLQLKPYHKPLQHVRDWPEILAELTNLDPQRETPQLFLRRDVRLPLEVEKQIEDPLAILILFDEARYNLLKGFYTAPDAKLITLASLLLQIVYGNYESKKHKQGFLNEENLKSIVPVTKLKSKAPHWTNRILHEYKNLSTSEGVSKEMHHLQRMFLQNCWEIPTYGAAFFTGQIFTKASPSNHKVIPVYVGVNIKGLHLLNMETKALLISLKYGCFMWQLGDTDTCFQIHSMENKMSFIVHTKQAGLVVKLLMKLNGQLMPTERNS

binding result [1]: binds
B1: HEG1 cytoplasmic tail model protein (residues 1,274-1,381) (domain or fragment, human, UniProt Q9ULI3 1274-1381, looked up)
chain: RKNKNDISKLIFKSGDFQMSPYAEYPKNPRSQEWGREAIEMHENGSTKNLLQMTDVYYSPTSVRNPELERNGLYPAYTGLPGSRHSCIFPGQYNPSFISDESRRRDYF

stoichiometry N [2]: 1.01
fold reduction in affinity against wild type [3]: > 100 fold
B2: recombinant human HEG1 C26 peptide (residues 1,356-1,381) (peptide, UniProt Q9ULI3 1356-1381, looked up)
chain: SRHSCIFPGQYNPSFISDESRRRDYF
